The assay has as its target T1, CsdE-myc-His6 (E. coli K12 MG1655), P0AGF2.
T1 chain: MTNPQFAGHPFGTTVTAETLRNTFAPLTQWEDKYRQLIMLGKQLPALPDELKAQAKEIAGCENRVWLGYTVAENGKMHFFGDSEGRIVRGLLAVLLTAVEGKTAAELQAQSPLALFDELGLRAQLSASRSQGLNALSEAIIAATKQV
Put plainly: affinity purification with mass spectrometry. The conditions noted are these: remark: other sources report otherwise.

By stoichiometry N is commonly meant the number of molecules, sites or subunits per partner or assembly.

B1: CsdE-myc-His6, P0AGF2 1-147 (natural protein)
chain: MTNPQFAGHPFGTTVTAETLRNTFAPLTQWEDKYRQLIMLGKQLPALPDELKAQAKEIAGCENRVWLGYTVAENGKMHFFGDSEGRIVRGLLAVLLTAVEGKTAAELQAQSPLALFDELGLRAQLSASRSQGLNALSEAIIAATKQV
In turn, B1 had a stoichiometry N of 2.

The record behind these values is article PMC2990340.
